Read-outs that look alike come from different tables or passages of the source. Each block holds one binder with its values, some of them ahead of it.
B1: Sec23/24p (complex, S. cerevisiae)
chain 1: MDFETNEDINGVRFTWNVFPSTRSDANSNVVPVGCLYTPLKEYDELNVAPYNPVVCSGPHCKSILNPYCVIDPRNSSWSCPICNSRNHLPPQYTNLSQENMPLELQSTTIEYITNKPVTVPPIFFFVVDLTSETENLDSLKESIITSLSLLPPNALIGLITYGNVVQLHDLSSETIDRCNVFRGDREYQLEALTEMLTGQKPTGPGGAASHLPNAMNKVTPFSLNRFFLPLEQVEFKLNQLLENLSPDQWSVPAGHRPLRATGSALNIASLLLQGCYKNIPARIILFASGPGTVAPGLIVNSELKDPLRSHHDIDSDHAQHYKKACKFYNQIAQRVAANGHTVDIFAGCYDQIGMSEMKQLTDSTGGVLLLTDAFSTAIFKQSYLRLFAKDEEGYLKMAFNGNMAVKTSKDLKVQGLIGHASAVKKTDANNISESEIGIGATSTWKMASLSPYHSYAIFFEIANTAANSNPMMSAPGSADRPHLAYTQFITTYQHSSGTNRIRVTTVANQLLPFGTPAIAASFDQEAAAVLMARIAVHKAETDDGADVIRWLDRTLIKLCQKYADYNKDDPQSFRLAPNFSLYPQFTYYLRRSQFLSVFNNSPDETAFYRHIFTREDTTNSLIMIQPTLTSFSMEDDPQPVLLDSISVKPNTILLLDTFFFILIYHGEQIAQWRKAGYQDDPQYADFKALLEEPKLEAAELLVDRFPLPRFIDTEAGGSQARFLLSKLNPSDNYQDMARGGSTIVLTDDVSLQNFMTHLQQVAVSGQA
chain 2: MSHHKKRVYPQAQLQYGQNATPLQQPAQFMPPQDPAAAGMSYGQMGMPPQGAVPSMGQQQFLTPAQEQLHQQIDQATTSMNDMHLHNVPLVDPNAYMQPQVPVQMGTPLQQQQQPMAAPAYGQPSAAMGQNMRPMNQLYPIDLLTELPPPITDLTLPPPPLVIPPERMLVPSELSNASPDYIRSTLNAVPKNSSLLKKSKLPFGLVIRPYQHLYDDIDPPPLNEDGLIVRCRRCRSYMNPFVTFIEQGRRWRCNFCRLANDVPMQMDQSDPNDPKSRYDRNEIKCAVMEYMAPKEYTLRQPPPATYCFLIDVSQSSIKSGLLATTINTLLQNLDSIPNHDERTRISILCVDNAIHYFKIPLDSENNEESADQINMMDIADLEEPFLPRPNSMVVSLKACRQNIETLLTKIPQIFQSNLITNFALGPALKSAYHLIGGVGGKIIVVSGTLPNLGIGKLQRRNESGVVNTSKETAQLLSCQDSFYKNFTIDCSKVQITVDLFLASEDYMDVASLSNLSRFTAGQTHFYPGFSGKNPNDIVKFSTEFAKHISMDFCMETVMRARGSTGLRMSRFYGHFFNRSSDLCAFSTMPRDQSYLFEVNVDESIMADYCYVQVAVLLSLNNSQRRIRIITLAMPTTESLAEVYASADQLAIASFYNSKAVEKALNSSLDDARVLINKSVQDILATYKKEIVVSNTAGGAPLRLCANLRMFPLLMHSLTKHMAFRSGIVPSDHRASALNNLESLPLKYLIKNIYPDVYSLHDMADEAGLPVQTEDGEATGTIVLPQPINATSSLFERYGLYLIDNGNELFLWMGGDAVPALVFDVFGTQDIFDIPIGKQEIPVVENSEFNQRVRNIINQLRNHDDVITYQSLYIVRGASLSEPVNHASAREVATLRLWASSTLVEDKILNNESYREFLQIMKARISK

How the values were obtained:
Experiment in all cases: liposome flotation
MBP–Sec16p [1] = target: T1, MBP–Sec16p (S. cerevisiae, UniProt P48415 1-2195)
T1 sequence (P48415 whole entry): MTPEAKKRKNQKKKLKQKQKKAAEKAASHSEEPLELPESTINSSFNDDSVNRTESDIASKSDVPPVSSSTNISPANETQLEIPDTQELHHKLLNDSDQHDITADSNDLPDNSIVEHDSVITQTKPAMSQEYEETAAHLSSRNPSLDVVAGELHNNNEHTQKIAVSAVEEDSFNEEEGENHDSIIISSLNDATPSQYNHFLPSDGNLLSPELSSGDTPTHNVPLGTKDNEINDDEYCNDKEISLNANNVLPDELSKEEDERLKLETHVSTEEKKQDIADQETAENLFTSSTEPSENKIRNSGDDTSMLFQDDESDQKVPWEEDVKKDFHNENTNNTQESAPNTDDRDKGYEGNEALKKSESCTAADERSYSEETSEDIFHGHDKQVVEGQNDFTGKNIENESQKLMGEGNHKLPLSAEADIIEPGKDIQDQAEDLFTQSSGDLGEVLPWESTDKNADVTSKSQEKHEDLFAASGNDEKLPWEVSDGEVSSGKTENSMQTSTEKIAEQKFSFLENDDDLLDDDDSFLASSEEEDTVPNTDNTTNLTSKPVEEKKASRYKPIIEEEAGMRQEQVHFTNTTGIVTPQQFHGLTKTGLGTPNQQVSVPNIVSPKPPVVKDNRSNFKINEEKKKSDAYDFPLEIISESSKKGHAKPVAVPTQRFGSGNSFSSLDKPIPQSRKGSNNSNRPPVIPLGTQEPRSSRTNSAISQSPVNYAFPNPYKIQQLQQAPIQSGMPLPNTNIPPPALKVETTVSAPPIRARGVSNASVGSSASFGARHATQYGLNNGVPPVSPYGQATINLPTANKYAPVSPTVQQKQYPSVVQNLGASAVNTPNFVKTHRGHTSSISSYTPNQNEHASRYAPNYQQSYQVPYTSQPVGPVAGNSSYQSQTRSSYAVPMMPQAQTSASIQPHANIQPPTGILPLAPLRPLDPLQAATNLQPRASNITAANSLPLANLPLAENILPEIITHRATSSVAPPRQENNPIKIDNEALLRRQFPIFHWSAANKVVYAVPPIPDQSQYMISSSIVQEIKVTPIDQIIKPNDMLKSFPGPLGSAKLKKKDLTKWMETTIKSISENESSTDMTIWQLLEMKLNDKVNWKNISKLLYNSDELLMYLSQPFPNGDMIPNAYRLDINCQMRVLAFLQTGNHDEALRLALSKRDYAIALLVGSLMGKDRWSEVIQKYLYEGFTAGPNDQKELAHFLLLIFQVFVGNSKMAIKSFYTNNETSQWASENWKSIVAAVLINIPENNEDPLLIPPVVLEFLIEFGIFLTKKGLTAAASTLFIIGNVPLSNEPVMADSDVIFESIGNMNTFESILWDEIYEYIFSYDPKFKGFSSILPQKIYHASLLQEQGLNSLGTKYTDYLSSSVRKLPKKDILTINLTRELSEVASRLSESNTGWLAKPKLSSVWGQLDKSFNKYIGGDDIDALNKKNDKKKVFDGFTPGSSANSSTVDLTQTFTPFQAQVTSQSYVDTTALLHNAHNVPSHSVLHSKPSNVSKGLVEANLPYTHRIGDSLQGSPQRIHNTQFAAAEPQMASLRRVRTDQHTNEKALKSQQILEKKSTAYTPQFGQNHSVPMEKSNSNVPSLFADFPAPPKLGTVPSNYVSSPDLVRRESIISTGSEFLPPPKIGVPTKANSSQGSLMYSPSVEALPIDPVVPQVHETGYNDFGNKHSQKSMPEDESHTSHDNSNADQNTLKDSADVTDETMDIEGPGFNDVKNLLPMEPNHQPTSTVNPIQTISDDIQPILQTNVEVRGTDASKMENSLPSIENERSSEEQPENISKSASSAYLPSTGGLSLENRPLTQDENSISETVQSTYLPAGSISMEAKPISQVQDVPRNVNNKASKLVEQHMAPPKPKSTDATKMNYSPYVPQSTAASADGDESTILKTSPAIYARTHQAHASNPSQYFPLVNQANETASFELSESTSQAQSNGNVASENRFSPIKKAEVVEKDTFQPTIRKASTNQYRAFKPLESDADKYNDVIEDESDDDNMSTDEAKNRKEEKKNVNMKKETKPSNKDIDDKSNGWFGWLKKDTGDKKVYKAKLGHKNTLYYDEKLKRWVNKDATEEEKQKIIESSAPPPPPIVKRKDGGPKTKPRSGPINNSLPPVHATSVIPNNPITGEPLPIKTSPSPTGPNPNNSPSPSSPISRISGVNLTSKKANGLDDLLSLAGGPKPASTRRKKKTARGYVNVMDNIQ

MBP–Sec16p [2] = target: T1, MBP–Sec16p; remark: listed apart in the source
Sec23/24p = target: B1

Binder: B1
binding result (MBP–Sec16p [1]): binds

binding result (MBP–Sec16p [2]): binds
B2: Sar1p (enzyme)
chain: not shown

binding result (Sec23/24p): binds
B3: Sec13/31p (complex, S. cerevisiae)
chain 1: MVVIANAHNELIHDAVLDYYGKRLATCSSDKTIKIFEVEGETHKLIDTLTGHEGPVWRVDWAHPKFGTILASCSYDGKVLIWKEENGRWSQIAVHAVHSASVNSVQWAPHEYGPLLLVASSDGKVSVVEFKENGTTSPIIIDAHAIGVNSASWAPATIEEDGEHNGTKESRKFVTGGADNLVKIWKYNSDAQTYVLESTLEGHSDWVRDVAWSPTVLLRSYLASVSQDRTCIIWTQDNEQGPWKKTLLKEEKFPDVLWRASWSLSGNVLALSGGDNKVTLWKENLEGKWEPAGEVHQ
chain 2: MVKLAEFSRTATFAWSHDKIPLLVSGTVSGTVDANFSTDSSLELWSLLAADSEKPIASLQVDSKFNDLDWSHNNKIIAGALDNGSLELYSTNEANNAINSMARFSNHSSSVKTVKFNAKQDNVLASGGNNGEIFIWDMNKCTESPSNYTPLTPGQSMSSVDEVISLAWNQSLAHVFASAGSSNFASIWDLKAKKEVIHLSYTSPNSGIKQQLSVVEWHPKNSTRVATATGSDNDPSILIWDLRNANTPLQTLNQGHQKGILSLDWCHQDEHLLLSSGRDNTVLLWNPESAEQLSQFPARGNWCFKTKFAPEAPDLFACASFDNKIEVQTLQNLTNTLDEQETETKQQESETDFWNNVSREESKEKPTVFHLQAPTWYGEPSPAAHWAFGGKLVQITPDGKGVSITNPKISGLESNTTLSEALKTKDFKPLINQRLVKVIDDVNEEDWNLLEKLSMDGTEEFLKEALAFDNDESDAQDDANNEKEDDGEEFFQQIETNFQPEGDFSLSGNIEQTISKNLVSGNIKSAVKNSLENDLLMEAMVIALDSNNERLKESVKNAYFAKYGSKSSLSRILYSISKREVDDLVENLDVSQWKFISKAIQNLYPNDIAQRNEMLIKLGDRLKENGHRQDSLTLYLAAGSLDKVASIWLSEFPDLEDKLKKDNKTIYEAHSECLTEFIERFTVFSNFINGSSTINNEQLIAKFLEFINLTTSTGNFELATEFLNSLPSDNEEVKTEKARVLIASGKSLPAQNPATATTSKAKYTNAKTNKNVPVLPTPGMPSTTSIPSMQAPFYGMTPGASANALPPKPYVPATTTSAPVHTEGKYAPPSQPSMASPFVNKTNSSTRLNSFAPPPNPYATATVPATNVSTTSIPQNTFAPIQPGMPIMGDYNAQSSSIPSQPPINAVSGQTPHLNRKANDGWNDLPLKVKEKPSRAKAVSVAPPNILSTPTPLNGIPANAASTMPPPPLSRAPSSVSMVSPPPLHKNSRVPSLVATSESPRASISNPYAPPQSSQQFPIGTISTANQTSNTAQVASSNPYAPPPQQRVATPLSGGVPPAPLPKASNPYAPTATTQPNGSSYPPTGPYTNNHTMTSPPPVFNKPPTGPPPISMKKRSNKLASIEQNPSQGATYPPTLSSSASPLQPSQPPTLASQVNTSAENVSHEIPADQQPIVDFLKEELARVTPLTPKEYSKQLKDCDKRLKILFYHLEKQDLLTQPTIDCLHDLVALMKEKKYKEAMVIHANIATNHAQEGGNWLTGVKRLIGIAEATLN

Reference: paper PMC2173217 (The Journal of Cell Biology, 2002)
